According to patent US6861508B2, “Transcriptional intermediary factor-2” (Institut National de la Sante et de la Recherche Medicale, priority 1996, dated 2005):
Positions count from the first letter of the chain named.

B1: TIF2.34: TIF2.5 C-terminally truncated to Pro775 (protein)
chain: MKLLSSIEQACDICRLKKLKCSKEKPKCAKCLKNNWECRYSPKTKRSPLTRAHLTEVESRLERLEQLFLLIFPREDLDMILKMDSLQDIKALLTGLFVQDNVNKDAVTDRLASVETDMPLTLRQHRISATSSSEESSNKGQRQLTVSERADGQSRLHDSKGQTKLLQLLTTKSDQMEPSPLASSLSDTNKDSTGSLPGSGSTHGTSLKEKHKILHRLLQDSSSPVDLAKLTAEATGKDLSQESSSTAPGSEVTIKQEPVSPKKKENALLRYLLDKDDTKDIGLPEITPKLERLDSKTDP
B2: GST-hTAFII18 (printed hTAFn18) (other, human, UniProt Q15543 1-124, looked up)
chain: MADEEEDPTFEEENEEIGGGAEGGQGKRKRLFSKELRCMMYGFGDDQNPYTESVDILEDLVIEFITEMTHKAMSIGRQGRVQVEDIVFLIRKDPRKFARVKDLLTMNEELKRARKAFDEANYGS
notes: not shown: glutathione-S-transferase (GST)
B3: TIF2.18: TIF2.13 with removal of 20 N-terminal amino acid residues (protein, UniProt Q15596 1031-1122, looked up, fragment)
chain: NQTAPWPESILPIDQASFASQNRQPFGSSPDDLLCPHPAAESPSDEGALLDQLYLALRNFDGLEEIDRALGIPELVSQSQAVDPEQFSSQDS
B4: GST-mRXRα(DE) (pGEX2T-mRXRα(DE), amino acids 205-467) (receptor, mouse, UniProt P28700 205-467, looked up)
chain: MKREAVQEERQRGKDRNENEVESTSSANEDMPVEKILEAELAVEPKTETYVEANMGLNPSSPNDPVTNICQAADKQLFTLVEWAKRIPHFSELPLDDQVILLRAGWNELLIASFSHRSIAVKDGILLATGLHVHRNSAHSAGVGAIFDRVLTELVSKMRDMQMDKTELGCLRAIVLFNPDSKGLSNPAEVEALREKVYASLEAYCKHKYPEQPGRFAKLLLRLPALRSIGLKCLEHLFFFKLIGDTPIDTFLMEMLEAPHQAT
notes: range 205-467; also called GST-RXR; GST-RXRα(DE); not shown: glutathione-S-transferase (GST) of pGEX2T (Pharmacia)
B5: TIF2.1 m12 (LL→AA in NR box motifs I and II) (other)
chain: ERADGQSRLHDSKGQTKLLQAATTKSDQMEPSPLASSLSDTNKDSTGSLPGSGSTHGTSLKEKHKILHRAAQDSSSPVDLAKLTAEATGKDLSQESSSTAPGSEVTIKQEPVSPKKKENALLRYLLDKDDTKDIGLPEITPKLERLDSKTDPASNTKLIAMKTEKEEMSFEPGDQPGSELDNLEEILDDLQNSQLPQLFPDTRPGAPAGSVDKQAIINDLMQLTAENSPVTPVGAQKTALRISQSTFNNPRPGQLGRLLPNQNLPLDITLQSPTGAGPFPPIRNSSPYSVIPQPGMMGNQGMIGNQGNLGNSSTGMIGNSASRPTMPSGEWAPQSSAVRVTCAATTSAMNRPVQGGMIRNPAASIPMRPSSQPGQRQTLQSQVMNIGPSELEMNMGGPQYSQQQAPPNQTAPWPESILPIDQASFASQNRQPFGSSPDDLLCPHPAAESPSDEGALLDQLYLALRNFDGLEEIDRALGIPELVSQSQAVDPEQFSSQDSNIMLEQKAPVFPQQYASQAQMAQGSYSPMQDPNFHTMGQRPSYATLRMQPRPGLRPTGLVQNQPNQLRLQLQHRLQAQQNRQPLMNQISNVSNVNLTLRPGVPTQAPINAQMLAQRQREILNQHLRQRQMHQQQQVQQRTLMMRGQGLNMTPSMVAPSGMPATMS
notes: also called single intact NR box III
B6: TIF2.1 m13 (LL→AA in NR box motifs I and III) (other)
chain: B5 chain with A70L, A71L, L125A, L126A
notes: also called single intact NR box II
B7: TIF2.1 m23 (LL→AA in NR box motifs II and III) (other)
chain: B5 chain with A21L, A22L, L125A, L126A
notes: also called single intact NR box I
B8: TIF2.15: TIF2.13 with removal of 26 C-terminal amino acid residues (protein, UniProt Q15596 1011-1096, looked up, fragment)
chain: PSELEMNMGGPQYSQQQAPPNQTAPWPESILPIDQASFASQNRQPFGSSPDDLLCPHPAAESPSDEGALLDQLYLALRNFDGLEEI

Experiments:
ER, RARα and RXRα LBDs = assay: GST pull-down of TIF2 polypeptides with NR LBDs; format: binding; settings: in vitro, with or without 10^−6 M ligand
Procedure: (b) Mapping of the nuclear receptor-interacting domain of TIF2.
(c-d) Interaction of TIF2 NID mutants with NRs in vitro. […] For quantification of point mutant interactions, see below.
(e-f) Effect of TIF2 NID point mutations on stimulation of NR AF-2 activity. Cos-1 cells were cotransfected with 1 μg of the (17m)5-TATA-CAT reporter, 0.2 μg of GAL-hERα(EF) or GAL-mRXRα(DE), and 2.5 μg of the TIF2.1 wildtype or mutated fragments, as indicated. […] Each bar represents the mean value obtained from at least three (interaction) or at least four (transactivation) experiments, respectively; standard deviations are indicated. Note that the absolute values for TIF2.1 wildtype activity varied by ±16% when cotransfected with GAL-hERα(EF) and by ±34% when cotransfected with GAL-mRXRα(DE). In the in-vitro-interaction assays, the affinity of the TIF2.1 wildtype standard varied by less than ±25%. Expression levels of TIF2 mutants in the cells were verified by Western blot (not shown) with mouse monoclonal antibody 3Ti3F1, which is directed against an epitope outside the mutated area.
To further delineate the TIF2 NR interaction domain (NID), we studied the interaction between a series of TIF2 deletion mutants and the ER or RARα LBDs, using GST-fusion protein-based in vitro assays. In both cases, an NWD was mapped to the central region of TIF2 (amino acids 624-869 in mutant TIF2.5; see FIGS. 7a and b). No additional NWD could be identified in the N- or C-termini of TIF2 (FIGS. 7a and b; mutants TIF2.0, TIF2.2 and TIF2.7). Note that, in contrast, SRC-1, a paralogue of TIF2, apparently harbours two distinct non-contiguous NIDs located in the central and C-terminal regions (Onate, S. A. et al., Science 270:1354-1357 (1995), Yao, T. P. et al., Proc. Natl. Acad. Sci. USA 93:10626-10631 (1996); Zhu, Y. et al., Gene Epression 6:185-195 (1996)).

[1] = target: T1, (His)6-TIF2.1, E. coli-expressed purified recombinant TIF2.1 (human, UniProt Q15596 624-1287); assay: GST interaction assay (not shown)
T1 construct: also called His-tagged TIF2.1; purified TIF2.1 protein; not shown: (His)6 tag of pET15b
T1 sequence: B5 chain with A21L, A22L, A70L, A71L

GAL4 reporter = assay: GAL4 DBD-TIF2 fusion CAT reporter transactivation assay; format: cell-based; settings: Cos-1 and/or HeLa cells
Procedure: (a) HeLa cells were cotransfected with 1 μg (17m)5-βG-CAT and 10 μg GAL(1-147) or 1,3 and 10 μg GAL(1-147)-TIF2.1, respectively.
(c) Analysis of the transcriptional activity of GAL-TIF2 fusion proteins. Cos-1 and HeLa cells were transfected with 3 lag of plasmids expressing different regions of TIF2 fised to the DNA-binding domain of the yeast transcription factor GALA together with 1 μg of the (7m)5-G-CAT reporterplasmid. CAT assays were performed as described (Bocquel, M. T. et al., Nucl Acids Res. 17:2581-2595 (1989)). Quantitative data on CAT reporter expression were obtained either by phosphoimager analysis (BAS2000, Fuji) of ^14C-labeled CAT reaction products separated by thin-layer chromatography, or using the CAT ELISA Kit (Boehringer Mannheim). In all cases, CAT activities were normalized to the β-galactosidase concentrations resulting from cotransfection of 1 μg of pCMVPGal (gift from T. Lerouge) as internal control. Fold inductions above the GAL4 DBD value are indicated. The mean and standard deviation of at least three experiments are shown. A representative Western blot, illustrating the expression levels of the GAL4-TIF2 fusion proteins, expressed from 10 μg of the corresponding expression vectors, is shown on the left.
(b) Transcriptional activation of TIF2 AF-1 mutants. Cos-1 and HeLa cells were cotransfected with 3 μg of plasmids expressing different mutants of the TIF2 AF-1 fused to the DNA-binding domain of the yeast transcription factor GAL4 together with 1 μg of the (17m)5-G-CAT reporter plasmid. Fold inductions above the activation seen with the GAL4 DBD alone are indicated. The values represent the mean of at least three experiments.
(a) Transcriptional activation by TIF2.13 and TIF2.13 mutants. Cos-1 and HeLa cells were cotransfected with 3 μg of plasmids expressing the TIF2.13 region and the indicated TIF2.13 mutants fused to the DNA-binding domain of the yeast transcription factor GALA together with 1 μg of the (17m)5-G-CAT reporter plasmid. Fold inductions above the GAL4 DBD 1-fold value are indicated. The mean and standard deviation obtained from at least four experiments are shown. The expression levels of the GAL4-TIF2.13 fusion proteins were confirmed by western blotting (data not shown).
Transient transfections of HeLa and Cos-1 cells were performed as described (Gronemeyer et al., (1987); Bocquel, M. T. et al., Nucl. Acids Res. 17:2581-2595 (1989)).

[2] = target: T2, TIF2.1 (TIF2 amino acids 624 to 1287) (human, UniProt Q15596 624-1287); assay: Far-Western blot with 32P-labelled NR LBD probe, agonist present
T2 construct: Form without a stated tag: expression-library clone, expressed in Cos cells from pSG5, or in-vitro-translated; also called cytoplasmic TIF2.1 polypeptide
T2 sequence: B5 chain with A21L, A22L, A70L, A71L

[3] = target: T3, GST-hRARα(DEF) (pGEX2T-hRARα(DEF), amino acids 153-462) (human, UniProt P10276 153-462); assay: in vitro GST interaction of TIF2.1 point mutants, with ligand, relative to TIF2.1 wild type
T3 construct: range 153-462; Bacterially produced; also called GST-RAR; GST-RARα(DEF); not shown: glutathione-S-transferase (GST) of pGEX2T (Pharmacia)
T3 sequence (looked up): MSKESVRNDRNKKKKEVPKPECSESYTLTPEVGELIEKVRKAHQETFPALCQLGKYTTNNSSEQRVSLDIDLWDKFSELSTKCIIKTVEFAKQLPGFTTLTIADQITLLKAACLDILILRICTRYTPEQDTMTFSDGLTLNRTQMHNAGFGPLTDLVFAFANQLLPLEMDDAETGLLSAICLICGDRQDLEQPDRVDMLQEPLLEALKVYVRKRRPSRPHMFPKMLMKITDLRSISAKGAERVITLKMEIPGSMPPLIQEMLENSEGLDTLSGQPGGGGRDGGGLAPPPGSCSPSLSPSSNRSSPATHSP

[4] = target: B4; assay: as above

Molecule	times less efficient in NR interaction than the wild-type TIF2 [3]	times less efficient in NR interaction than the wild-type TIF2 [4]	further results
B1	–	–	binding to NRs (ER, RARα LBDs) (ER, RARα and RXRα LBDs): interacted with ER and RARα LBDs in a ligand-dependent manner
B2	–	–	binding result [1]: no binding
B3	–	–	transcriptional activation of GAL4 reporter by GAL4 DBD fusion (GAL4 reporter): reduced transcriptional activity only weakly
B4	–	–	binding result [2]: binds
B5	20 times less efficient than wild type	20 times less efficient than wild type	–
B6	5 times less efficient than wild type	5 times less efficient than wild type	–
B7	20 times less efficient than wild type	20 times less efficient than wild type	–
B8	–	–	transcriptional activation of GAL4 reporter by GAL4 DBD fusion (GAL4 reporter): reduced transcriptional activity only weakly
